Consider 23 sequences from the Immune Epitope Database (IEDB).

Targets include HLA-A*02:01; HLA-A*02:02; HLA-A*02:03; HLA-A*02:06; HLA-A*68:02.
Holding throughout (assay): IEDB peptide-MHC binding, purified MHC/competitive/radioactivity; ≥ and ≤ were set here for values at or beyond the usual limits of such assays
What all share (details): source organism: Vaccinia virus WR

The term IC50 denotes the point on the concentration scale where inhibition reaches its midpoint. Take DINESMSQMV: the IC50 was found to be 158 nM with HLA-A*02:01; 312 nM with HLA-A*02:02; 488 nM in the assay with HLA-A*02:03; 4150 nM in the assay with HLA-A*02:06; 2070 nM with HLA-A*68:02.
For DLLNVTYNI the same measures were 787 nM, 297 nM, 194 nM, 1280 nM and 212 nM.
As for DLNIFMTLV, the IC50 with HLA-A*02:01 came out at 1120 nM; in the assay with HLA-A*02:02, 1910 nM; in the assay with HLA-A*02:03 it was 556 nM; in the assay with HLA-A*02:06, 2190 nM; with HLA-A*68:02, 192 nM.
For DQLVFNSISA the same measures were 527 nM, 206 nM, 289 nM, 759 nM and 4130 nM.
In the case of DQTHIKTIAV, the IC50 in the assay with HLA-A*02:01 stood at 650 nM; with HLA-A*02:02 it was 2170 nM; with HLA-A*02:03 it was 390 nM; in the assay with HLA-A*02:06 it was 1000 nM; with HLA-A*68:02, 404 nM.
In the same order, the values of DTCLLAISAV are 46 nM, 2460 nM, 93 nM, 106 nM and 118 nM.
For DTMSIYIAVA the same measures were 83 nM, 19 nM, 24 nM, 1480 nM and 17 nM.
In the same order, the values of DVERLQMAGV are 683 nM, 215 nM, 104 nM, 776 nM and 363 nM.
As for DVFRPLFDFV, the IC50 was 1650 nM with HLA-A*02:01; 1020 nM in the assay with HLA-A*02:02; 2570 nM with HLA-A*02:03; 232 nM with HLA-A*02:06; 180 nM with HLA-A*68:02.
With DVLPFDIKYI, the concentration for half-maximal inhibition (IC50) with HLA-A*02:01 is 183 nM; in the assay with HLA-A*02:02, 1200 nM; in the assay with HLA-A*02:03, 188 nM; with HLA-A*02:06 it was 1110 nM; with HLA-A*68:02 it was 361 nM.
As to DVSLSAYII, the IC50 is 1500 nM in the assay with HLA-A*02:01; 691 nM with HLA-A*02:02; 755 nM with HLA-A*02:03; 4380 nM with HLA-A*02:06; 591 nM with HLA-A*68:02.
Consider EAAAATCALV, for which the IC50 in the assay with HLA-A*02:01 was determined as 318 nM; in the assay with HLA-A*02:02 it was 1810 nM; with HLA-A*02:03 it was 248 nM; with HLA-A*02:06, 60 nM; with HLA-A*68:02, 0.21 nM.
As to ELAYYNSCM, the IC50 stood at 4370 nM in the assay with HLA-A*02:01; 129 nM with HLA-A*02:02; 136 nM in the assay with HLA-A*02:03; 3580 nM in the assay with HLA-A*02:06; 278 nM with HLA-A*68:02.
In the same order, the values of ELKHGLLDSI are 738 nM, 540 nM, 55 nM, 1340 nM and 266 nM.
Consider ELTTVFIKYV, for which the IC50 in the assay with HLA-A*02:01 came out at 2560 nM; with HLA-A*02:02, 2800 nM; with HLA-A*02:03, 719 nM; with HLA-A*02:06, 463 nM; in the assay with HLA-A*68:02, 81 nM.
As to EMVEYLENQL, the IC50 is 485 nM with HLA-A*02:01; 212 nM in the assay with HLA-A*02:02; 209 nM with HLA-A*02:03; 420 nM with HLA-A*02:06; 1650 nM with HLA-A*68:02.
In the same order, the values of ETIEILRNYL are 944 nM, 474 nM, 1410 nM, 0.28 nM and 0.13 nM.
For ETIQKDINIT the same measures were 1270 nM, 354 nM, 10 nM, 112 nM and 69 nM.
As for ETLPELNLSL, the IC50 with HLA-A*02:01 came out at 1100 nM; with HLA-A*02:02, 52 nM; in the assay with HLA-A*02:03, 130 nM; with HLA-A*02:06, 134 nM; in the assay with HLA-A*68:02, 648 nM.
Regarding EVERLMELPV, the IC50 was determined as 1980 nM in the assay with HLA-A*02:01; 2460 nM with HLA-A*02:02; 1430 nM with HLA-A*02:03; 3630 nM with HLA-A*02:06; 1220 nM in the assay with HLA-A*68:02.
On to EVNDTHYTV, for which the IC50 in the assay with HLA-A*02:01 stood at 3060 nM; with HLA-A*02:02, 133 nM; with HLA-A*02:03 it was 115 nM; with HLA-A*02:06 it was 4770 nM; with HLA-A*68:02, 0.5 nM.
Consider FAISYCRAFI, for which the IC50 with HLA-A*02:01 was 1970 nM; with HLA-A*02:02, 105 nM; in the assay with HLA-A*02:03, 38 nM; with HLA-A*02:06, 35 nM; in the assay with HLA-A*68:02 it was 1.7 nM.
In the same order, the values of FIASAPQQL are 120 nM, 2 nM, 4.4 nM, 89 nM and 35 nM.
